Among the data in US20080093219A1 are phage inactivated after mAb and anti-rat IgG serum, phage inactivated, control treatment (mAb with buffer only) and phage inactivation, time course of mAb treatment values, retold here.

The assay addresses T4 tail-fiber protein P37 SΔ1ras2 (gene 37 SΔ1 deletion with the H-ras mAb epitope inserted at the junction), on SΔ1ras2 phage (bacteriophage T4; bacteriophage T4 with human H-ras insert) (UniProt P03744). As to the kind of experiment: cell-based or functional assay.

rat monoclonal IgG antibody Y13-259: the phage inactivated after mAb and anti-rat IgG serum is 85%; the phage inactivated, control treatment (mAb with buffer only) was 99.8%; the phage inactivation, time course of mAb treatment amounted to 99.9%.
